Reference: publication PMC9482650, “Quantitative fragmentomics allow affinity mapping of interactomes” (Nature Communications, 2022)

T1: APBA3_1, O96018
T1 sequence (O96018 389-490, limits assumed, looked up): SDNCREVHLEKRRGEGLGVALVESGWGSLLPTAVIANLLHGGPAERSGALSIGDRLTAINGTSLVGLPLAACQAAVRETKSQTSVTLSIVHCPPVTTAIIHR

T2: DVL3, Q92997
T2 sequence (Q92997 244-331, limits assumed, looked up): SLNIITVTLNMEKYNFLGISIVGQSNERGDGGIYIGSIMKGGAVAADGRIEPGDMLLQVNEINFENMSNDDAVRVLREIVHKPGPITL

T3: FRMPD1, Q5SYB0
T3 sequence (Q5SYB0 52-145, limits assumed, looked up): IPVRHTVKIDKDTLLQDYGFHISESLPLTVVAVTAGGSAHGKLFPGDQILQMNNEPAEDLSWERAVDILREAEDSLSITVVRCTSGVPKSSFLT

T4: HTRA3, P83110
T4 sequence (P83110 354-453, limits assumed, looked up): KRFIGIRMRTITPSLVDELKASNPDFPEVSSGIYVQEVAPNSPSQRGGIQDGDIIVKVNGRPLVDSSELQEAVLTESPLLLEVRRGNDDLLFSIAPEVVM

T5: LIN7C, Q9NUP9
T5 sequence (Q9NUP9 88-185, limits assumed, looked up): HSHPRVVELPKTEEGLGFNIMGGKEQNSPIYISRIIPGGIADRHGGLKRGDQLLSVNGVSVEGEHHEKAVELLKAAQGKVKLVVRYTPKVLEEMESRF

T6: PDZD7_3, Q9H5P4
T6 sequence (Q9H5P4 857-944, limits assumed, looked up): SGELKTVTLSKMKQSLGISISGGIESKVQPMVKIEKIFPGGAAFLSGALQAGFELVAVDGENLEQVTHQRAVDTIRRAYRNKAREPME

T7: PTPN13_1, Q12923
T7 sequence (Q12923 1088-1188, limits assumed, looked up): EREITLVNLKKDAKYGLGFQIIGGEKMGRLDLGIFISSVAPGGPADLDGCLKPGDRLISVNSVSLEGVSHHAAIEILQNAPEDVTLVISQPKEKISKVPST

T8: RHPN1, Q8TCX5
T8 sequence (Q8TCX5 508-602, limits assumed, looked up): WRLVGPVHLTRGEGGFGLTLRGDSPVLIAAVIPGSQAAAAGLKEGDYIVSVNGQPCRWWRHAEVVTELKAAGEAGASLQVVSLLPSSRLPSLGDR

T9: SNTA1, Q13424
T9 sequence (Q13424 82-180, limits assumed, looked up): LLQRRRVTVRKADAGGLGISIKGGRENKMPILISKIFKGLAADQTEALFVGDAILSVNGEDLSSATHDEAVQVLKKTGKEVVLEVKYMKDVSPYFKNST

T10: SNTG2, Q9NY99
T10 sequence (Q9NY99 68-166, limits assumed, looked up): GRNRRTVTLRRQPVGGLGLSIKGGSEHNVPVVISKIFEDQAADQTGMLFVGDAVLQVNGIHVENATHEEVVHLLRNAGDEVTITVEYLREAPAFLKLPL

T11: TJP3_3, O95049
T11 sequence (O95049 375-456, limits assumed, looked up): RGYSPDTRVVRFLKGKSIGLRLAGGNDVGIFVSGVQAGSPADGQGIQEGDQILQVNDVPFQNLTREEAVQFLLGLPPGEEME

T12: TX1BP3, O14907
T12 sequence (O14907 10-122, limits assumed, looked up): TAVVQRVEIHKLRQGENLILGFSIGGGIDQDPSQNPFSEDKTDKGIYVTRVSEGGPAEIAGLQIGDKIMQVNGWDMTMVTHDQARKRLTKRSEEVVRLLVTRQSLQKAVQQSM


Key:
Experiment in all cases: holdup assay
Design in all cases: key: below the threshold = too weak to quantify, mostly under pKd 3.1 to 4
Conditions in all cases: plain residues with an end cap or a label only (N-terminal biotin on a linker: ado-ado)
APBA3_1, O96018 = molecular target: T1, APBA3_1, O96018
ARHGEF12, Q9NZN5-2 = molecular target: ARHGEF12, Q9NZN5-2
ARHGEF12, Q9NZN5-2, sequence (Q9NZN5 other isoform, or with tags, fused parts or gaps): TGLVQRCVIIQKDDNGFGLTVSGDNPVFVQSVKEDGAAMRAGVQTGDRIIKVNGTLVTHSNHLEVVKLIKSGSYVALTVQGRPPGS

DLG2_3, Q15700 = molecular target: DLG2_3, Q15700
DVL3, Q92997 = molecular target: T2, DVL3, Q92997
FRMPD1, Q5SYB0 = molecular target: T3, FRMPD1, Q5SYB0
FRMPD2_1, Q68DX3 = molecular target: FRMPD2_1, Q68DX3
FRMPD2_1, Q68DX3, sequence (Q68DX3 770-861): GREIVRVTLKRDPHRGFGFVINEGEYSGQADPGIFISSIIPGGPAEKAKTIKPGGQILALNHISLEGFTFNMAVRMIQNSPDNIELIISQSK

FRMPD2_2, Q68DX3 = molecular target: FRMPD2_2, Q68DX3
FRMPD2_2, Q68DX3, sequence (Q68DX3 944-1038): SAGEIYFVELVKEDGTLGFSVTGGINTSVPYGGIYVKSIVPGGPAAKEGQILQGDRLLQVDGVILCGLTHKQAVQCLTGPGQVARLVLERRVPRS

FRMPD3, Q5JV73 = molecular target: FRMPD3, Q5JV73
FRMPD3, Q5JV73, sequence (Q5JV73 12-100): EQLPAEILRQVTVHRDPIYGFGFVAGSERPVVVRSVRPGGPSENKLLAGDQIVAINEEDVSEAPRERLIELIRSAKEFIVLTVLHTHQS

GORASP1, Q9BQQ3 = molecular target: GORASP1, Q9BQQ3
GORASP1, Q9BQQ3, sequence (Q9BQQ3 1-208): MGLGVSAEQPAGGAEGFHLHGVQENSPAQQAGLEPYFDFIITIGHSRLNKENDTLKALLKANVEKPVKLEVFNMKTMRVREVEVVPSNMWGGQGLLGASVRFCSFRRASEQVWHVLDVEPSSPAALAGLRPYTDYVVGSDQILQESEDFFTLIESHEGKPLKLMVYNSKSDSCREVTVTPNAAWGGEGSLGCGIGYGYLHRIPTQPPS

GRIP2_3, Q9C0E4 = molecular target: GRIP2_3, Q9C0E4
GRIP2_3, Q9C0E4, sequence (Q9C0E4 238-339): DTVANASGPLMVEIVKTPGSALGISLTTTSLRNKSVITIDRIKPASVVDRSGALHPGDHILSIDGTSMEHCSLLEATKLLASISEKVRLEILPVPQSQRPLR

HTRA3, P83110 = molecular target: T4, HTRA3, P83110
Inadl_4, Q8NI35 = molecular target: Inadl_4, Q8NI35
Inadl_4, Q8NI35, sequence (Q8NI35 547-651): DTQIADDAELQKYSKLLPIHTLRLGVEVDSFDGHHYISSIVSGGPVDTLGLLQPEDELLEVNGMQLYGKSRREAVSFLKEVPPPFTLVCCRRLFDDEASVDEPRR

Inadl_5, Q8NI35 = molecular target: Inadl_5, Q8NI35
Inadl_5, Q8NI35, sequence (Q8NI35 673-780): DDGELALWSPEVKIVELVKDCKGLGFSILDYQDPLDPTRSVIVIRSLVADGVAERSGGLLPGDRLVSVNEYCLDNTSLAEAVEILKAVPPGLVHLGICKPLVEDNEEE

LIN7C, Q9NUP9 = molecular target: T5, LIN7C, Q9NUP9
MAGI2_4, Q86UL8 = molecular target: MAGI2_4, Q86UL8
MAGI2_4, Q86UL8, sequence (Q86UL8 772-865): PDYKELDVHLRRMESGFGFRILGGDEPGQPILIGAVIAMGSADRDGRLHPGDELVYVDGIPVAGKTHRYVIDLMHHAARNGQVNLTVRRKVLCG

MAST1, Q9Y2H9 = molecular target: MAST1, Q9Y2H9
MAST1, Q9Y2H9, sequence (Q9Y2H9 962-1065): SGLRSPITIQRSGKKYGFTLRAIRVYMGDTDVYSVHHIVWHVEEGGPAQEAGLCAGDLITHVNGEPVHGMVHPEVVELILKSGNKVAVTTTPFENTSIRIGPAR

PDZD7_3, Q9H5P4 = molecular target: T6, PDZD7_3, Q9H5P4
PDZRN4_1, Q6ZMN7 = molecular target: PDZRN4_1, Q6ZMN7
PDZRN4_1, Q6ZMN7, sequence (Q6ZMN7 213-318): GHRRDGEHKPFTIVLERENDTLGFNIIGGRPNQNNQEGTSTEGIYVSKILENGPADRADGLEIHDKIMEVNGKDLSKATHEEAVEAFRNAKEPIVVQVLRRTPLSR

PTPN13_1, Q12923 = molecular target: T7, PTPN13_1, Q12923
PTPN3, P26045 = molecular target: PTPN3, P26045
PTPN3, P26045, sequence (P26045 505-587): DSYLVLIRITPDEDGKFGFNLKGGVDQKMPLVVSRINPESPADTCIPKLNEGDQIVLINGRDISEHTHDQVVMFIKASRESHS

RHPN1, Q8TCX5 = molecular target: T8, RHPN1, Q8TCX5
SNTA1, Q13424 = molecular target: T9, SNTA1, Q13424
SNTG2, Q9NY99 = molecular target: T10, SNTG2, Q9NY99
TJP3_3, O95049 = molecular target: T11, TJP3_3, O95049
TX1BP3, O14907 = molecular target: T12, TX1BP3, O14907

Row | Binder | pKd (APBA3_1, O96018) | pKd (ARHGEF12, Q9NZN5-2) | pKd (DLG2_3, Q15700) | pKd (DVL3, Q92997) | pKd (FRMPD1, Q5SYB0) | pKd (FRMPD2_1, Q68DX3) | pKd (FRMPD2_2, Q68DX3) | pKd (FRMPD3, Q5JV73) | pKd (GORASP1, Q9BQQ3) | pKd (GRIP2_3, Q9C0E4) | pKd (HTRA3, P83110) | pKd (Inadl_4, Q8NI35) | pKd (Inadl_5, Q8NI35) | pKd (LIN7C, Q9NUP9) | pKd (MAGI2_4, Q86UL8) | pKd (MAST1, Q9Y2H9) | pKd (PDZD7_3, Q9H5P4) | pKd (PDZRN4_1, Q6ZMN7) | pKd (PTPN13_1, Q12923) | pKd (PTPN3, P26045) | other results
1 | QSPPNIYYKV [EFNB3, Q15768] | below the threshold | below the threshold | below the threshold | below the threshold | below the threshold | 3.79 | below the threshold | below the threshold | 4.75 | below the threshold | 3.53 | 3.51 | below the threshold | below the threshold | 3.69 | 4.07 | below the threshold | below the threshold | below the threshold | 4.05 | pKd (RHPN1, Q8TCX5): below the threshold; pKd (SNTA1, Q13424): below the threshold; pKd (SNTG2, Q9NY99): 3.7; pKd (TJP3_3, O95049): below the threshold; pKd (TX1BP3, O14907): below the threshold
2 | ETSLVKGIDI [DENND5A, Q6IQ26] | below the threshold | 4.17 | below the threshold | below the threshold | below the threshold | below the threshold | below the threshold | below the threshold | below the threshold | below the threshold | 3.91 | below the threshold | below the threshold | below the threshold | 3.66 | below the threshold | below the threshold | below the threshold | below the threshold | below the threshold | pKd (RHPN1, Q8TCX5): 3.56; pKd (SNTA1, Q13424): below the threshold; pKd (SNTG2, Q9NY99): below the threshold; pKd (TJP3_3, O95049): below the threshold; pKd (TX1BP3, O14907): below the threshold

More lines, main results first:

Row | pKd (APBA3_1, O96018) | pKd (ARHGEF12, Q9NZN5-2) | pKd (DLG2_3, Q15700) | pKd (DVL3, Q92997) | pKd (FRMPD1, Q5SYB0) | pKd (FRMPD2_1, Q68DX3) | pKd (FRMPD2_2, Q68DX3) | pKd (FRMPD3, Q5JV73) | pKd (GORASP1, Q9BQQ3) | pKd (GRIP2_3, Q9C0E4) | pKd (HTRA3, P83110) | pKd (Inadl_4, Q8NI35) | pKd (Inadl_5, Q8NI35) | pKd (LIN7C, Q9NUP9) | pKd (MAGI2_4, Q86UL8) | pKd (MAST1, Q9Y2H9) | pKd (PDZD7_3, Q9H5P4) | pKd (PDZRN4_1, Q6ZMN7) | pKd (PTPN13_1, Q12923) | pKd (PTPN3, P26045) | Binder | other results
3 | below the threshold | below the threshold | below the threshold | below the threshold | below the threshold | below the threshold | below the threshold | below the threshold | below the threshold | below the threshold | below the threshold | below the threshold | below the threshold | below the threshold | below the threshold | 3.93 | below the threshold | below the threshold | below the threshold | below the threshold | NVYGTESVKI [GRIA3, P42263] | pKd (RHPN1, Q8TCX5): below the threshold; pKd (SNTA1, Q13424): below the threshold; pKd (SNTG2, Q9NY99): below the threshold; pKd (TJP3_3, O95049): below the threshold; pKd (TX1BP3, O14907): below the threshold
4 | below the threshold | 4.62 | 3.48 | below the threshold | below the threshold | below the threshold | below the threshold | below the threshold | below the threshold | below the threshold | below the threshold | below the threshold | below the threshold | below the threshold | below the threshold | 4.63 | 4.22 | below the threshold | below the threshold | 4.1 | ANGLMQTSKL [SSTR5, P35346] | pKd (RHPN1, Q8TCX5): 4.36; pKd (SNTA1, Q13424): below the threshold; pKd (SNTG2, Q9NY99): 3.62; pKd (TJP3_3, O95049): below the threshold; pKd (TX1BP3, O14907): 4.11
5 | below the threshold | 4.46 | 4.58 | 3.96 | below the threshold | below the threshold | 5.11 | below the threshold | 4.86 | below the threshold | 4.51 | below the threshold | 4.34 | below the threshold | 3.82 | 4.39 | 5.26 | below the threshold | below the threshold | 4.71 | NASRTRITFV [MCM7, P33993] | pKd (RHPN1, Q8TCX5): 4.48; pKd (SNTA1, Q13424): 4.97; pKd (SNTG2, Q9NY99): 3.84; pKd (TJP3_3, O95049): 3.53; pKd (TX1BP3, O14907): 4.88
6 | below the threshold | below the threshold | below the threshold | below the threshold | below the threshold | below the threshold | below the threshold | below the threshold | below the threshold | below the threshold | below the threshold | below the threshold | below the threshold | below the threshold | below the threshold | below the threshold | below the threshold | below the threshold | below the threshold | below the threshold | SRPRPDDLEI [GJA1, P17302] | pKd (RHPN1, Q8TCX5): below the threshold; pKd (SNTA1, Q13424): below the threshold; pKd (SNTG2, Q9NY99): below the threshold; pKd (TJP3_3, O95049): below the threshold; pKd (TX1BP3, O14907): below the threshold
